Test results taken from patent US20210061922A1 (published 2021).

Molecular target: CD16a (UniProt P08637 17-208)
Experiment: SPR

CD16a, sequence (P08637 17-208): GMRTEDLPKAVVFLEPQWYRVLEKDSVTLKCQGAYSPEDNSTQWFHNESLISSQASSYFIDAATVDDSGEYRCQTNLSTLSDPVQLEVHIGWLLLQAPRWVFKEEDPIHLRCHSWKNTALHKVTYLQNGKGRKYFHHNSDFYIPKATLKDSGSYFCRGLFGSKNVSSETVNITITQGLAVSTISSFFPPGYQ

B1: Anti-CD16 nanobody (VHH)
VHH: EVQLTESGGEDVQAGGSLRLSCSASGLTFSSYNMGWFRRAPGKEREFVASITWSGRDTFYADSVKGRFTISRDNAKNTVYLQMSSLKPEDTATYYCAANPWPVAAPRSGTYWGEGTQVTV
  Kd: 2.6 nM
